Reference: article PMC5851525, “Quantitative analysis of the impact of a human pathogenic mutation on the CCT5 chaperonin subunit using a proxy archaeal ortholog^” (Biochemistry and Biophysics Reports, 2017)
Values belong to the compound of their own block, whether it stands above or below them.

Experiments:
Pf-CD1 [1] = molecular target: T1, Pf-CD1 (Pyrococcus furiosus, UniProt Q8TZL6, I138R); experiment: isothermal titration calorimetry, one set of sites model; assay type: binding
T1 construct: gene PF1974; C-terminal deletion (last 22 residues of Pf-Cpn removed); expressed in E. coli BL21(DE3) from pET33b; homo-hexadecamer (two octameric rings)
Description: (§1) isothermal titration calorimetry, one set of sites model on Pf-CD1

Pf-CD1 [2] = molecular target: T2, Pf-CD1 (Pyrococcus furiosus, UniProt Q8TZL6, DEL/LAST/OF/RESIDUES); experiment: as above; assay type: binding
T2 construct: gene PF1974; C-terminal deletion (last 22 residues of Pf-Cpn removed); expressed in E. coli BL21(DE3) from pET33b; homo-hexadecamer (two octameric rings)
T2 sequence (Q8TZL6 1-527): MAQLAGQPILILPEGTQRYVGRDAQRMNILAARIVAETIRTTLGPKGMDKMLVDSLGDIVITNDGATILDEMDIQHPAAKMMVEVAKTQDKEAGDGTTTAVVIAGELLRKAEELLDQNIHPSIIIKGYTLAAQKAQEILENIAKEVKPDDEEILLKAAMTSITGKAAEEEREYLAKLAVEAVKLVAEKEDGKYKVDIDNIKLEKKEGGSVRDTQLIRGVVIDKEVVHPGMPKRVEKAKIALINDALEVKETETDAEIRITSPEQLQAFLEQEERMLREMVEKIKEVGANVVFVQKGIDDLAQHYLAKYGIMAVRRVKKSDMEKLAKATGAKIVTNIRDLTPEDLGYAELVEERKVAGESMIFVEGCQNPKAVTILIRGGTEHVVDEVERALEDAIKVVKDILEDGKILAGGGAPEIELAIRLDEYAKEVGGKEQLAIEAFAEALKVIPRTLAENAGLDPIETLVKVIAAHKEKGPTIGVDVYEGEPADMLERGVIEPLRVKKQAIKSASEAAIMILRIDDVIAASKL
Description: as §1

Pf-CD1 [3] = molecular target: T3, Pf-CD1 (Pyrococcus furiosus, UniProt Q8TZL6, I138H); experiment: as above; assay type: binding
T3 construct: gene PF1974; C-terminal deletion (last 22 residues of Pf-Cpn removed); expressed in E. coli BL21(DE3) from pET33b; homo-hexadecamer (two octameric rings)
Description: as §1

[4] = molecular target: Pf-CD1 Ile138Arg (Pyrococcus furiosus); experiment: ITC; dilution experiment, 18 successive injections, 25 °C; fit to a two-state hexadecamer-monomer equilibrium (hexadecamer to monomers); parameters per subunit
[5] = molecular target: Pf-CD1 Ile138His (Pyrococcus furiosus); experiment: as above
[6] = molecular target: Pf-CD1, Pyrococcus furiosus chaperonin subunit (Pf-Cpn) with the last 22 amino acids deleted (Pyrococcus furiosus); experiment: as above

Compound: Nc1ncnc2c1ncn2[C@@H]1O[C@H](COP(=O)(O)OP(=O)(O)OP(=O)(O)O)[C@@H](O)[C@H]1O [ATP]
- Kd (Pf-CD1 [1]): 200 ± 10 nM
- Kd (Pf-CD1 [2]): 320 ± 50 nM
- Kd (Pf-CD1 [3]): 300 ± 20 nM

- Kd [4]: 100 nM
- dH of dissociation (∆Hd) [4]: -49 kcal/mol
- stoichiometry N [4]: 16
Compound: Pf-CD1 Ile138Arg (domain or fragment)

- Kd [5]: 430 nM
- dH of dissociation (∆Hd) [5]: -250 kcal/mol
- stoichiometry N [5]: 16
Compound: Pf-CD1 Ile138His (domain or fragment)

- Kd [6]: 310 nM
- dH of dissociation (∆Hd) [6]: -350 kcal/mol
- stoichiometry N [6]: 16
Compound: Pf-CD1, Pyrococcus furiosus chaperonin subunit (Pf-Cpn) with the last 22 amino acids deleted (domain or fragment)
